Key:
[1] = system: internally quenched peptide probe with CM PWGLRS (SEQ ID NO: 48)
[2] = system: internally quenched peptide probe with CM PWGLSGR (SEQ ID NO: 163)
[3] = system: internally quenched peptide probe with CM LSGRSPAGL (SEQ ID NO: 694)
[4] = system: internally quenched peptide probe with CM PWGLSGAS (SEQ ID NO: 692)
[5] = system: internally quenched peptide probe with CM AWGLSGRS (SEQ ID NO: 686)
[6] = system: internally quenched peptide probe with CM PWGASGRS (SEQ ID NO: 689)
[7] = system: internally quenched peptide probe with CM WGLSGRS (SEQ ID NO: 685)
[8] = system: internally quenched peptide probe with CM PWGLSARS (SEQ ID NO: 691)
[9] = system: internally quenched peptide probe with CM RSPWGL (SEQ ID NO: 90)
[10] = system: internally quenched peptide probe with CM PWGLSGKS (SEQ ID NO: 150)
[11] = system: internally quenched peptide probe with CM PWGLAGRS (SEQ ID NO: 690)
[12] = system: internally quenched peptide probe with CM LSGRSPWGL (SEQ ID NO: 177)
[13] = system: internally quenched peptide probe with CM PWGLSG (SEQ ID NO: 684)
[14] = system: internally quenched peptide probe with CM PWALSGRS (SEQ ID NO: 688)
[15] = system: internally quenched peptide probe with CM LSGKSPWGL (SEQ ID NO: 178)
[16] = system: internally quenched peptide probe with CM PWGLSGRS (SEQ ID NO: 12)
[17] = system: internally quenched peptide probe with CM PAGLSGRS (SEQ ID NO: 687)
[18] = system: internally quenched peptide probe with CM PWGLSGRA (SEQ ID NO: 693)

matrix metalloprotease 9 (MMP9), sequence (chain, as listed by the source): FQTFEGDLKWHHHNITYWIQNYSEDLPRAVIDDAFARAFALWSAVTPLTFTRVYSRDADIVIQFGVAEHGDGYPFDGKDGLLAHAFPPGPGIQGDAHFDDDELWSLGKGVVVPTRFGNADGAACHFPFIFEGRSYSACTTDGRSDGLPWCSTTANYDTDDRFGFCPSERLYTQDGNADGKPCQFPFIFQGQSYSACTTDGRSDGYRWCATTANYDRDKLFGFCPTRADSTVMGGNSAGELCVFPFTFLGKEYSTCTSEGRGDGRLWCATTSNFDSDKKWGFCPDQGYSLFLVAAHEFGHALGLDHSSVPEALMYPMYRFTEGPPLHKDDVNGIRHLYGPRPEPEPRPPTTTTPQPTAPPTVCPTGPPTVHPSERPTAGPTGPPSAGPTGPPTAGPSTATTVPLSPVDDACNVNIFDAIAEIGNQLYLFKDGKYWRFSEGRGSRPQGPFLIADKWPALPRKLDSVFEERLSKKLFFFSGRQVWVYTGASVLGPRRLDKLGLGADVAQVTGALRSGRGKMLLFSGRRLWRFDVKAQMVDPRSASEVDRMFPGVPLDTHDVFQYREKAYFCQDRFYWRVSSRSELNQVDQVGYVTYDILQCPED

matrix metalloprotease 9 (MMP9)
Probe Cleavage (kcat/KM (M^-1 s^-1)) [1]: 150000 M⁻¹ s⁻¹
Probe Cleavage (pM/s) [1]: 3830 pM/s
Probe Cleavage (pM/s) [2]: 17200 pM/s
Probe Cleavage (pM/s) [3]: 1630 pM/s
Probe Cleavage (pM/s) [4]: 16400 pM/s
Probe Cleavage (pM/s) [5]: 2070 pM/s
Probe Cleavage (pM/s) [6]: 456 pM/s
Probe Cleavage (pM/s) [7]: 581 pM/s
Probe Cleavage (pM/s) [8]: 17500 pM/s
Probe Cleavage (kcat/KM (M^-1 s^-1)) [9]: 870000 M⁻¹ s⁻¹
Probe Cleavage (pM/s) [9]: 25500 pM/s
Probe Cleavage (kcat/KM (M^-1 s^-1)) [10]: 130000 M⁻¹ s⁻¹
Probe Cleavage (pM/s) [10]: 5360 pM/s
Probe Cleavage (pM/s) [11]: 13700 pM/s
Probe Cleavage (pM/s) [12]: 1070 pM/s
Probe Cleavage (pM/s) [13]: 13000 pM/s
Probe Cleavage (pM/s) [14]: 12800 pM/s
Probe Cleavage (pM/s) [15]: 630 pM/s
Probe Cleavage (kcat/KM (M^-1 s^-1)) [16]: 150000 M⁻¹ s⁻¹
Probe Cleavage (pM/s) [16]: 7620 pM/s
Probe Cleavage (pM/s) [17]: 16200 pM/s
Probe Cleavage (pM/s) [18]: 17500 pM/s
